Substitutions are numbered along the chain they refer to. Numbers in names are those of the source. Read-outs that look alike come from different tables or passages of the source.

Assay [1] concerns the target T1, GST-Glmn (Glomulin) (UniProt Q92990 1-594).
T1 chain: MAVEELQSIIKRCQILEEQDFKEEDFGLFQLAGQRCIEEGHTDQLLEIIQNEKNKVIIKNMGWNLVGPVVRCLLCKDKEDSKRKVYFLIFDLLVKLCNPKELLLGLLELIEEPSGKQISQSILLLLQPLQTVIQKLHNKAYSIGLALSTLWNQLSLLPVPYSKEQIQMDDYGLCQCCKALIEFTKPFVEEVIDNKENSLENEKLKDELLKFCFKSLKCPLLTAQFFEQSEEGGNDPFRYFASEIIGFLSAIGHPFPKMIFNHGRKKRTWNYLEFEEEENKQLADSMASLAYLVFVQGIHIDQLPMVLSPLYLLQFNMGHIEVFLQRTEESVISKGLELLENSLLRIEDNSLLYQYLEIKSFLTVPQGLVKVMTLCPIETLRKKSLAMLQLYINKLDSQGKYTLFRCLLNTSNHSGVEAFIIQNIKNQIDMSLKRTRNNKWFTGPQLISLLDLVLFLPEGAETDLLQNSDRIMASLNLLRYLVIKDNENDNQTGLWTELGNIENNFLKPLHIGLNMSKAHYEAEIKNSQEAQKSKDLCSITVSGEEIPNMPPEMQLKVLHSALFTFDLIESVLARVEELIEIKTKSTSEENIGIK
In words: FRET.

The target in assay [2] is T1, GST-Glmn (Glomulin). In words: FRET.
Assay [3] deals with T1, GST-Glmn (Glomulin). Nature of the assay: FRET.
Assay [4] has as its target T2, GST-Glmn (Glomulin) (UniProt Q92990 1-594).
T2 construct: Glomulin (Glmn); GST is detected by the anti-GST-Tb cryptate antibody in the HTRF assays; also called GST-tagged Glmn; FAP48; source: E. coli BL21(DE3), purified (glutathione beads, SEC)
T2 sequence (looked up): T1 chain
In words: AlphaScreen or HTRF; competitive HTRF: unlabelled FKBP titrated against 30 nM FKBP51FK1-5-MF and 30 nM GST-Glmn with Anti GST-Tb cryptate; 20 mM HEPES, 5% glycerol, 20 mM NaCl, 10 mM DTT, pH 8.0; room temperature, 1 h. The note with it: both partners purified.

B1: His-FKBP51FK1 (aa16-140) (domain or fragment)
chain: ATVAEQGEDITSKKDRGVLKIVKRVGNGEETPMIGDKVYVHYKGKLSNGKKFDSSHDRNEPFVFSLGKGQVIKAWDIGVATMKKGEICHLLCKPEYAYGSAGSLPKIPSNATLFFEIELLDFKGE
As for B1, the figures for the IC50 in the assay with GST-Glmn (Glomulin) [1] and in the assay with GST-Glmn (Glomulin) [2] were 380 nM and 372 nM, respectively.

B2: His-FKBP51FK1 (FD67/68DV) (domain or fragment)
chain: MTTDEGAKNNEESPTATVAEQGEDITSKKDRGVLKIVKRVGNGEETPMIGDKVYVHYKGKLSNGKKDVSSHDRNEPFVFSLGKGQVIKAWDIGVATMKKGEICHLLCKPEYAYGSAGSLPKIPSNATLFFEIELLDFKGE
Consider B2, for which, in the assay with GST-Glmn (Glomulin) [3], the IC50 stood at 15600 nM.

B3: His-FKBP51FK1 (1-140) (domain or fragment)
chain: B2 chain with D67F, V68D
B3 gave an IC50 with GST-Glmn (Glomulin) [1] of 383 nM.

B4: His-FKBP51FK1 (F67V) (domain or fragment)
chain: B2 chain with D67V, V68D
In the assay with GST-Glmn (Glomulin) [1], B4 gave an IC50 of 880 nM.

B5: His-FKBP51-Strep (full length) (natural protein, UniProt Q13451 1-457, looked up)
chain: MTTDEGAKNNEESPTATVAEQGEDITSKKDRGVLKIVKRVGNGEETPMIGDKVYVHYKGKLSNGKKFDSSHDRNEPFVFSLGKGQVIKAWDIGVATMKKGEICHLLCKPEYAYGSAGSLPKIPSNATLFFEIELLDFKGEDLFEDGGIIRRTKRKGEGYSNPNEGATVEIHLEGRCGGRMFDCRDVAFTVGEGEDHDIPIGIDKALEKMQREEQCILYLGPRYGFGEAGKPKFGIEPNAELIYEVTLKSFEKAKESWEMDTKEKLEQAAIVKEKGTVYFKGGKYMQAVIQYGKIVSWLEMEYGLSEKESKASESFLLAAFLNLAMCYLKLREYTKAVECCDKALGLDSANEKGLYRRGEAQLLMNEFESAKGDFEKVLEVNPQNKAARLQISMCQKKAKEHNERDRRIYANMFKKFAEQDAKEEANKAMGKKTSEGVTNEKGTDSQAMEEEKPEGHV
notes: FKBP51, full length; in pProEx-HTA, used as previously described; also called FKBP51FL; full-length FKBP51; source: E. coli BL21(DE3), purified (Ni-NTA, SEC)
On to B5, for which the “fold difference in competition between full-length protein and the isolated FK506-binding domain” value in the assay with GST-Glmn (Glomulin) [4] amounted to 4 fold. In addition, in the assay with GST-Glmn (Glomulin) [2], the IC50 is 96 nM.

B6: His-FKBP52-Strep (full length) (natural protein, UniProt Q02790 1-459, looked up)
chain: MTAEEMKATESGAQSAPLPMEGVDISPKQDEGVLKVIKREGTGTEMPMIGDRVFVHYTGWLLDGTKFDSSLDRKDKFSFDLGKGEVIKAWDIAIATMKVGEVCHITCKPEYAYGSAGSPPKIPPNATLVFEVELFEFKGEDLTEEEDGGIIRRIQTRGEGYAKPNEGAIVEVALEGYYKDKLFDQRELRFEIGEGENLDLPYGLERAIQRMEKGEHSIVYLKPSYAFGSVGKEKFQIPPNAELKYELHLKSFEKAKESWEMNSEEKLEQSTIVKERGTVYFKEGKYKQALLQYKKIVSWLEYESSFSNEEAQKAQALRLASHLNLAMCHLKLQAFSAAIESCNKALELDSNNEKGLFRRGEAHLAVNDFELARADFQKVLQLYPNNKAAKTQLAVCQQRIRRQLAREKKLYANMFERLAEEENKAKAEASSGDHPTDTEMKEEQKSNTAGSQSQVETEA
notes: FKBP52, full length; in pProEx-HTA, used as previously described; also called FKBP52FL; full-length FKBP52; source: E. coli BL21(DE3), purified (Ni-NTA, SEC)
As for B6, the “fold better competition than its FK1 domain” value in the assay with GST-Glmn (Glomulin) [4] was about 19 fold.

B7: His-FKBP52FK1 (domain or fragment)
chain: GDRVFVHYTGWLLDGTKFDSSLDRKDKFSFDLGKGEVIKAWDIAIATMKVGEVCHITCKPEYAYGSAGSPPKIPPNATLVFEVELFEFK
The molecule B7 returned a half-maximal inhibitory concentration (IC50) in the assay with GST-Glmn (Glomulin) [2] of 362 nM.

These data come from paper PMC6730887, “FKBP51 and FKBP12.6—Novel and tight interactors of Glomulin” (PLoS ONE, 2019).
